From patent US8796209B2, “Compositions and methods related to anti-FGF agents” (The Regents of the University of California, priority 2005, dated 2014) come the findings set out here.

The nature of assay [1]: Heparin binding assay (heparin sepharose column, NaCl step elution). As to conditions: for Heparin binding: phenotype of FGF-1 mutants, Table 2. How it is done: Partially purified wt and mutant FGF1 in 100 mM NaCl and 50 mM Tris (pH 7.4) were applied to a heparin sepharose column (1 ml bed volume). The column was washed with the same buffer and bound proteins were eluted with a stepwise increase in NaCl concentration from 0.1 to 1.2 M. Fractions were analyzed by SDS-polyacrylamide gradient gel electrophoresis. Proteins were visualized by Coomassie Brilliant Blue staining.
Wild type and mutant FGF-1 in 100 mM NaCl and 50 mM Tris/HCI (pH 7.4) were applied to heparin sepharose column (1 ml bed volume). The column was washed with same buffer, and bound proteins were eluted with a stepwise increase in NaCl concentration from 0.1 to 1.2 M. Fractions were analyzed by SDS-polyacrylamide gradient gel electrophoresis. Proteins were visualized by Coomassie Brilliant Blue staining.

The target in the next assay is T1, FGFR1 D2D3 fragment (Homo sapiens, UniProt P11362).
T1 construct: A DNA fragment encoding amino acid residues 140 to 365 of the immunoglobulin-like domains D2 and D3 of FGFR; made in house
T1 sequence (P11362 140-365): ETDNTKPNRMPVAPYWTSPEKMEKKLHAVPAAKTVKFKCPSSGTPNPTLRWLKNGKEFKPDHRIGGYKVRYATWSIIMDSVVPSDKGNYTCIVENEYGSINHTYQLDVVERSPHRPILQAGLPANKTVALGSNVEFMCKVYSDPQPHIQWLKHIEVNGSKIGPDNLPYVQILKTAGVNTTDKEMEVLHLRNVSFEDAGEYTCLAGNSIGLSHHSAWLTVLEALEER
The assay is described as follows: Competition with biotinylated FGF-1 for immobilized FGF receptor D2D3 fragments. It is filed as binding. The settings on record: for effect of the mutation on binding of the FGFR1 D2D3 fragment: competition with 1 μg/ml biotinylated FGF-1; for FGFR binding: phenotype of FGF-1 mutants, Table 2. The procedure:
One μg/mi biotinylated FGF-1 and increasing concentrations of unlabelled FGF-1 or FGF-1 mutants were incubated for 1 h at RT with immobilized FGF receptor D2D3 fragments. Then the plate was washed and the bound biotinylated FGF were measured using an avidin conjugated HRP. Unlabeled wild-type (diamond) FGF-1, the R50E (square), 4xE (circle), and 3xA (triangle) FGF-1 mutants were used.
A DNA fragment encoding amino acid residues 140 to 365 of the immunoglobulin-like domains D2 and D3 of FGFR was amplified by PCR with the full length human FGFR1 cDNA in the pcDNA3 (gift from Ann Hanneken, the Scripps Research Institute, La Jolla, Calif.) as a template. A Bam HI restriction site was introduced at the 5′ end, Xho I site at the 3′ end of the cDNA fragment with the following primers: 5′-[…]-3′ (SEQ ID NO:5), 5′-[…]-3′ (SEQ ID NO:6). The resulting cDNA fragment was subcloned into the Bam HI/Xho I sites of the vector pET21a, and transformed into BL21 (DE3).
The protein was expressed as an insoluble protein, refolded as described (Plotnikov et al., 2000). The refolded protein was purified by affinity chromatography using the FGF-1 coupled to CNBr-activated Sepharose (Amersham Pharmacia Biotech) as an affinity matrix. FGF-1-Sepharose was incubated with crude refolded proteins 16 h at 4° C. After binding, the affinity matrix was washed with buffer containing 100 mM NaCl and 50 mM Tris (pH 7.4); and eluted with 1.2M NaCl, and 50 mM Tris (pH 7.4).

In assay [2] the test system is Balb 3T3 cells. In words: DNA synthesis by BrdU incorporation. The settings on record: for effect of the mutation on FGF-1 induced BrdU incorporation: 5 ng/ml, 5 μg/ml heparin, 24 h; for DNA synthesis: phenotype of FGF-1 mutants, Table 2. Format: cell-based, mouse. The procedure: Balb 3T3 cells were plated on cover slips in 6-well culture plates, serum starved (DMEM, 0.4% fetal calf serum) for 48 h, and stimulated with 5 ng/ml wild-type and mutant FGF-1s in the presence of 5 μg/ml heparin for 24 h. BrdU was added to the medium for the last 6 h of the incubation. Cells were fixed and incubated with anti BrdU antibody. BrdU incorporated cells were stained with DAB. The mean value of BrdU positive cells from wild type-treated culture was set to 100%, and the corresponding results from mutant-treated cultures were scaled accordingly. Results are shown as means±S.D. Asterisks indicate significant differences (p<0.05) compared with wild type treatment.
DNA synthesis was measured by BrdU incorporation. Balb 3T3 cells were plated on sterile cover slips in 6-well culture plates and serum starved in DMEM supplemented with 0.4% fetal calf serum for 48 h, and stimulated with 5 ng/ml wild type and mutant FGF-1s for 24 h in the presence and absence of 5 μg/ml heparin. BrdU (10 μg/ml) was added to the medium for the last 6 h of the incubation. Cells were then fixed with 70% ethanol and incubated with 2N HCI. After the medium was neutralized with 0.1 M borate buffer (pH 8.5), the cells were incubated with anti-BrdU antibody (BD PharMingen, San Diego, Calif.). BrdU incorporated cells were stained with HRP conjugated secondary antibody (Biorad) and metal enhanced diaminobenzidine substrate kit (Pierce, Rockford, Ill.). Diaminobenzidine positive and negative cells were counted from the digital images of three independent fields.
Background: Uptake of a labelled nucleoside into DNA is a usual measure of proliferation.

Assay [3] has as its system Balb 3T3 cells. In words: Scratch wound healing assay. Format: cell-based, mouse. As to conditions: for Wound healing: phenotype of FGF-1 mutants, Table 2; for effect on migration of Balb3T3 cells in scratch wound healing assays: with 5 μg/ml heparin, 24 h. How it is done: Confluent serum-starved Balb 3T3 cells were scratched. After washing with serum-free medium, cells were incubated in DMEM containing 5 μg/ml heparin and 5 ng/ml wild-type or mutant FGF-1s for 24 h at 37° C. Controls contain medium alone (none) or medium containing 10% fetal calf serum (FCS).
Balb 3T3 cells were plated into 6-well cell culture plate. Cells were allowed to grow in DMEM containing 10% fetal calf serum for overnight, and then cells were washed with serum-free medium and starved for 24 h. A scratch was made across the cell layer using a pipette tip. After washing with serum-free medium twice, DMEM containing 10 ng/ml wild type or mutant FGF-1 together with 5 μg/ml heparin were added to cells. Plates were photographed at 0, 6, 12, and 24 h.

The next assay relates to FRS2α. In words: FRS2 phosphorylation, western blot. Format: cell-based. The settings on record: mouse fibroblasts. The procedure:
The same cell lysates as described above were analyzed by western blotting with anti-phospho FRS2 or anti-FRS2, where; 1: Wild type; 2: R50E; 3: 4xE; 4: 3xA; 5: None; and 6: FBS.
This experiment tested how the FGF1 mutations affect phosphorylation of FRS2α.
(In general: Immunoblotting shows a protein as a band on a membrane.)

Where a chain is given by its changes, count along the chain named.

As to “R50E: FGF-1 mutant with the Arg-50 to Glu (R50E) mutation”, in assay [1], the “effect of the mutation on heparin binding to FGF-1” value (“effect of the mutation … to FGF-1” for short) is “did not” and the Heparin binding entry is reported as “Normal”. Moreover, in the assay with FGFR1 D2D3 fragment, the “effect of the mutation on binding of the FGFR1 D2D3 fragment” value (“effect … of the FGFR1 D2D3 fragment” below) is “did not block” and the FGFR binding result was “Normal”. Also, in the assay on Balb 3T3 cells [2], the “effect of the mutation on FGF-1 induced BrdU incorporation” value was “significantly blocked” and the DNA synthesis result was “Low”. In addition, in the assay with Balb 3T3 cells [3], the Wound healing result is listed as “Low” and the “effect on migration of Balb3T3 cells in scratch wound healing assays” value (“effect on migration of Balb3T3 cells” for short) was “effectively blocked”. Also, the FRS2α phosphorylation entry in the assay with FRS2α is “abolished”.
Turning to “Wild type: human FGF-1 (acidic FGF), wild type, expressed in E. coli”, the Heparin binding entry in assay [1] is reported as “Normal”. Moreover, the FGFR binding result in the assay with FGFR1 D2D3 fragment is on record as “Normal”. The DNA synthesis result with Balb 3T3 cells [2] was “Normal”. Moreover, in the assay on Balb 3T3 cells [3], the Wound healing result was “Normal”. The FRS2α phosphorylation result with FRS2α is on record as “induced”.

B1: 4xE: FGF-1 mutant, Lys127/Lys128/Lys133/Arg134 simultaneously to Glu (protein)
chain: FNLPPGNYKKPKLLYCSNGGHFLRILPDGTVDGTRDRSDQHIQLQLSAESVGEVYIKSTETGQYLAMDTDGLLYGSQTPNEECLFLERLEENHYNTYISKKHAEKNWFVGLEENGSCEEGPRTHYGQKAILFLPLPVSSD
With B1, in assay [1], the “effect of the mutation … to FGF-1” value is listed as “completely blocked” and the Heparin binding entry is on record as “Low”. Further, in the assay with FGFR1 D2D3 fragment, the “effect … of the FGFR1 D2D3 fragment” value was “did not block” and the FGFR binding result was “Normal”. In the assay on Balb 3T3 cells [2], the “effect of the mutation on FGF-1 induced BrdU incorporation” value is on record as “significantly blocked” and the DNA synthesis result is recorded as “Low”. Also, in the assay with Balb 3T3 cells [3], the Wound healing entry is given as “Low” and the “effect on migration of Balb3T3 cells” value was “effectively blocked”. Besides, in the assay with FRS2α, the FRS2α phosphorylation entry is on record as “abolished”.

B2: 3xA: FGF-1 mutant, three residues in the FGFR binding site (Glu102/Tyr109/Asn110) to Ala (protein)
chain: B1 chain with E87A, Y94A, N95A, E112K, E113K, E118K, E119R
As for B2, in assay [1], the “effect of the mutation … to FGF-1” value is “did not” and the Heparin binding result was “Normal”. Moreover, in the assay with FGFR1 D2D3 fragment, the “effect … of the FGFR1 D2D3 fragment” value is given as “effectively blocked” and the FGFR binding result is reported as “Low”. Further, in the assay on Balb 3T3 cells [2], the “effect of the mutation on FGF-1 induced BrdU incorporation” value is reported as “also blocked” and the DNA synthesis entry is listed as “Low”. For the same molecule, in the assay on Balb 3T3 cells [3], the Wound healing result is “Low” and the “effect on migration of Balb3T3 cells” value is “effectively blocked”. The FRS2α phosphorylation entry in the assay on FRS2α was “abolished”.
